Among the data in patent publication US6225121 are activity values, retold here.

This data set has as its system T1, Minos transposase (Minos-2) (Drosophila hydei).
T1 sequence: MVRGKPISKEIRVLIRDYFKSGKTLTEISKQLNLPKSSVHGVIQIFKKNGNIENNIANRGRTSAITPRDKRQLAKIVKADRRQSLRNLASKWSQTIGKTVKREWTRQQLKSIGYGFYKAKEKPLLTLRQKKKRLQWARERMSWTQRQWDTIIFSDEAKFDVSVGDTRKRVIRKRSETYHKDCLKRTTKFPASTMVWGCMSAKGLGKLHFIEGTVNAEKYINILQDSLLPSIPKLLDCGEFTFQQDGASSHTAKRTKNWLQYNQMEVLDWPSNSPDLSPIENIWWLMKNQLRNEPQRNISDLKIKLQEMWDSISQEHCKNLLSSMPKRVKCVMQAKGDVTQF
Description: cell_activity. The following applies: HeLa stable transfectants vs transposon alone, experiment 1 (18-fold and 14.5-fold in experiments 2 and 3); source Minos copy of helper not stated; binding not ….

In turn, “Minos transposon with both terminal inverted repeats, neo cargo (pMiLRneo)” returned an activity of 19 fold.
